Laboratory results taken from publication PMC2690451 (The EMBO Journal, 2009).

T1: MBP-RacA (B. subtilis, UniProt P45870 1-184)
T1 sequence: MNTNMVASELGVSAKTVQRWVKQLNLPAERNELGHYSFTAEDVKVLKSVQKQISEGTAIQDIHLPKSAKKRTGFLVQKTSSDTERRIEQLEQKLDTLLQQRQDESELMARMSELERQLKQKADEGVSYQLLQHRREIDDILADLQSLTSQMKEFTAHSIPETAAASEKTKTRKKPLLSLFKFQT

B1: DivIVA (natural protein)
chain: MPLTPNDIHNKTFTKSFRGYDEDEVNEFLAQVRKDYEIVLRKKTELEAKVNELDERIGHFANIEETLNKSILVAQEAAEDVKRNSQKEAKLIVREAEKNADRIINESLSKSRKIAMEIEELKKQSKVFRTRFQMLIEAQLDLLKNDDWDHLLEYEVDAVFEEKE
B2: DivIVA-MBP (natural protein)
chain: MPLTPNDIHNKTFTKSFRGYDEDEVNEFLAQVRKDYEIVLRKKTELEAKVNELDERIGHFANIEETLNKSILVAQEAAEDVKRNSQKEAKLIVREAEKNADRIINESLSKSRKIAMEIEELKKQSKVFRTRFQMLIEAQLDLLKNDDWDHLLEYEVDAVFEEKE
B3: ΔN-DivIVA-MBP (domain or fragment)
chain: RKKTELEAKVNELDERIGHFANIEETLNKSILVAQEAAEDVKRNSQKEAKLIVREAEKNADRIINESLSKSRKIAMEIEELKKQSKVFRTRFQMLIEAQLDLLKNDDWDHLLEYEVDAVFEEKE
B4: ΔC-DivIVA-MBP (domain or fragment)
chain: MPLTPNDIHNKTFTKSFRGYDEDEVNEFLAQVRKDYEIVLRKKTELEAKVNELDERIGHFANIEETLNKSILVAQEAAEDVKRNSQKEAKLIVREAEKNADRIINESLSKSRKIAMEIEELKKQSKVFRTRFQMLIEAQLDLLK

Columns and labels:
MBP-RacA = biological target: T1, MBP-RacA; assay: density gradient flotation with liposomes
SEC = biological target: the molecule itself; assay: SEC

Binder | binding result (MBP-RacA) | binding result (SEC)
B1 | binds | –
B2 | – | binds
B3 | – | binds
B4 | – | binds
